For three substances, stoichiometry N and Kd results are on record in PMC11026580.

For experiment [1], the target named is IgA2 (m2) C2Q. Briefly: SEC; analytical size-exclusion chromatography of affinity-purified IgA2 (m2) from small-scale transient transfections; JC co-expressed (LC:HC:JC 1:1:0.5). In general terms: In gel filtration, larger molecules generally elute earlier.
The target in experiment [2] is extracellular domain of the human FcαRI (human) (UniProt P24071).
Experiment [3] has the same target. The source holds these as a separate data set.

For orientation: stoichiometry N means the number of molecules, sites or subunits per partner or assembly. Broadly, the Kd is the constant that tells how readily two partners part at equilibrium. Read a high Kd as a looser complex.

Where two headings read alike, the source gives them in different places.

Chain of extracellular domain of the human FcαRI (human) (P24071 22-227): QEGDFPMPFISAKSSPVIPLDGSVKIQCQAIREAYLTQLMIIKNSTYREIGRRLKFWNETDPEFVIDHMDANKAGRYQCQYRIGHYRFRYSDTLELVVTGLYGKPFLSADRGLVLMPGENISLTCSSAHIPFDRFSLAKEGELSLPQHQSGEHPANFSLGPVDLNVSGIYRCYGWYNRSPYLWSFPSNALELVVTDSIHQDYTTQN

In experiment [1], IgA2 (m2) C2Q (antibody) returned a stoichiometry N of 2.

Substance IgA2 (m2) C2Q (from UniProt P01877) returned a Kd in experiment [2] of 0.193 µM.

IgA2 (m2) N2Q (from UniProt P01877) had a Kd in experiment [3] of 0.303 µM.
